The values below come from PMC8622905, “Structural Effects of Disease-Related Mutations in Actin-Binding Period 3 of Tropomyosin” (Molecules, 2021).

Data set [1] deals with the molecule itself. The experiment in a line: mass spectrometry; molecular weights of the purified peptides compared with theoretical MWs calculated in Expasy; Liquid Chromatography and Mass Spectrometry Laboratory.
Data set [2] concerns the molecule itself. The data set is described as follows: cross-linking; disulfide cross-link through the N-terminal Cys, seen on SDS-polyacrylamide gel; Laemmli solution without β-mercaptoethanol, with or without 3 min at 100 °C.

B1: Tpm1.1_(64–154)I92T (domain or fragment)
chain: not shown
modifications: oxidized Cys residues (disulfide between the N-terminal Cys of the two chains)
notes: tropomyosin Tpm1.1 (human, TPM1), residues 64-154 with the cardiomyopathy mutation I92T; source: His-tag removed with thrombin; not shown: His-tag, N-terminal, cleaved
Turning to B1, the “stoichiometry N” value in data set [1] is 2.

B2: Tpm3.12_(65–155)R91C (domain or fragment)
chain: not shown
modifications: oxidized Cys residues (disulfide between the N-terminal Cys of the two chains)
notes: tropomyosin Tpm3.12 (human, TPM3), residues 65-155 with the congenital myopathy mutation R91C; source: His-tag removed with thrombin; not shown: His-tag, N-terminal, cleaved
On to B2, for which the “stoichiometry N” value in data set [1] was 2.

B3: Tpm3.12_(65–155) (domain or fragment)
chain: not shown
modifications: disulfide bond between the Cys residues of the N-terminal fusion sequences of the two chains (non-reducing conditions)
notes: tropomyosin Tpm3.12 (human skeletal isoform, TPM3), residues 65-155, numbered as in full-length Tpm3.12; Cloned in pET15b between NdeI and BamHI; One sentence of the methods prints 65–165; also called Tpm3.12 peptide; wild-type Tpm3.12_(65–155); source: His-tag removed with thrombin; not shown: His-tag, N-terminal, cleaved
On to B3, for which, in data set [2], the “stoichiometry N” value is 2.

B4: Tpm3.12_(65–155)R91P (domain or fragment)
chain: not shown
modifications: oxidized Cys residues (disulfide between the N-terminal Cys of the two chains)
notes: tropomyosin Tpm3.12 (human, TPM3), residues 65-155 with the congenital myopathy mutation R91P; source: His-tag removed with thrombin; not shown: His-tag, N-terminal, cleaved
Turning to B4, in data set [1], the “stoichiometry N” value is 2.

B5: Tpm1.1_(64–154) (domain or fragment)
chain: not shown
modifications: disulfide bond between the Cys residues of the N-terminal fusion sequences of the two chains (non-reducing conditions)
notes: tropomyosin Tpm1.1 (human skeletal isoform, TPM1), residues Leu64 to Ile154; Cloned in pET15b between NdeI and BamHI; also called Tpm1.1 peptide; wild-type Tpm1.1_(64–154); source: His-tag removed with thrombin; not shown: His-tag, N-terminal, cleaved
On to B5, for which the “stoichiometry N” value in data set [2] was 2.

B6: Tpm1.1_(64–154)V95A (domain or fragment)
chain: not shown
modifications: oxidized Cys residues (disulfide between the N-terminal Cys of the two chains)
notes: tropomyosin Tpm1.1 (human, TPM1), residues 64-154 with the cardiomyopathy mutation V95A; source: His-tag removed with thrombin; not shown: His-tag, N-terminal, cleaved
Turning to B6, the “stoichiometry N” value in data set [1] was 2.
